For assay [1], the target named is CTLA4 on CTLA4 expressing Jurkat cells (UniProt P16410 36-223, limits assumed). In words: cell-based or functional assay.
In assay [2] the target is T1, human CTLA4-Fc (R&D Systems, #7268-CT) (human, UniProt P16410 36-162).
T1 construct: Bought; not shown: Fc part
The experiment in a line: ELISA, human CTLA4-Fc coated; protease +.

Assay [3] has as its target T1, human CTLA4-Fc (R&D Systems, #7268-CT). The experiment in a line: CTLA4 ELISA (luminescence) after culture of Antibody 2-14 in colon tumor conditioned media; the text gives 100% of molecules cleaved. Background: ELISA stands for enzyme-linked immunosorbent assay.
The target is the same in assay [4]. The experiment in a line: low density antigen binding ELISA, human CTLA4-Fc coated; after protease digestion.
Assay [5] has the same target. The experiment in a line: low density antigen binding ELISA, human CTLA4-Fc coated at 1 µg/mL, anti-human kappa-HRP.
Assay [6] has the same target. In words: ELISA: plate coated with human CTLA4-Fc (R&D Systems), detection anti-huKappa-HRP, chemiluminescence; signal as fraction of the parental antibody's RLU (Example 5).
For assay [7] the target is unchanged. In words: ELISA, human CTLA4-Fc coated; protease -.
The target is the same in assay [8]. The experiment in a line: low density antigen binding ELISA, human CTLA4-Fc coated; no protease.
Assay [9] shares this target. The experiment in a line: CTLA4 ELISA (luminescence) after culture of the non-cleavable masked antibody in RPMI as control.
Assay [10] shares this target. In words: ELISA, human CTLA4-Fc coated; protease -. This is another data set of the same source.
Assay [11] has the same target. In words: CTLA4 ELISA (luminescence) after culture of the masked antibody in RPMI as control.
Assay [12] has as its target T2, CTLA4 coated on an MSD plate (Homo sapiens (Human), UniProt P16410 36-161).
T2 construct: not shown: The carrier of the coated recombinant CTLA4; It is probably the Fc of a CTLA4-Fc, as in the other ELISAs
In words: binding to a CTLA4-coated MSD plate; antibody from plasma of MB49-bearing B-hCTLA4 mice 4 days after 10 mg/kg (28 % cleaved by FIG. 24D), IgG quantified by ELISA, 3-fold dilutions (Example 16).

The target in assay [13] is T1, human CTLA4-Fc (R&D Systems, #7268-CT). In words: CTLA4 ELISA (luminescence) after culture of the non-cleavable masked antibody in colon tumor conditioned media.
In assay [14] the target is T3, muCTLA4hsIgG protein (Abcam) (murine, UniProt P09793 36-161, limits assumed).
T3 construct: Bought; also called murine CTLA4; not shown: human IgG part (hsIgG)
The experiment in a line: low density antigen binding ELISA, muCTLA4hsIgG coated; average of three experiments.

The target of assay [15] is T4, murine CTLA4-Fc (R&D Systems) (murine, UniProt P09793 36-162).
T4 construct: Bought; also called muCTLA4-hsIgG (R&D Systems); not shown: human IgG Fc part (hsIgG)
In words: ELISA: plate coated with murine CTLA4-Fc (R&D Systems), detection anti-muKappa-HRP, chemiluminescence (Example 3A).

Positions count from the first letter of the chain named. Names and notes keep the numbering of the source.

Sequence of CTLA4 on CTLA4 expressing Jurkat cells (P16410 36-223 limits assumed): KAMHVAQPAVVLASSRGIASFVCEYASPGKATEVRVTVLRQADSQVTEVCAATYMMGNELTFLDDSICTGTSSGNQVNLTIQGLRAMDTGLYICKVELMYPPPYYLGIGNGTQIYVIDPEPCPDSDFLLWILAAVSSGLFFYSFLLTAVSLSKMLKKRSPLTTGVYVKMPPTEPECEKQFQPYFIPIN
T1 sequence (P16410 36-162 limits assumed): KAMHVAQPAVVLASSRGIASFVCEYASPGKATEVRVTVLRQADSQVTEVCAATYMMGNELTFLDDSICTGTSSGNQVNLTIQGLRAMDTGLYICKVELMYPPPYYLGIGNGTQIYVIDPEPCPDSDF
T2 sequence (P16410 36-161 limits assumed): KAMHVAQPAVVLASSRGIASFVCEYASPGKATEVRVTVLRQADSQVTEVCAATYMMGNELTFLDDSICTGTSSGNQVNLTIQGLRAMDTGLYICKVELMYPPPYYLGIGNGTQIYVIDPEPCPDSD

B1: Antibody 2-14, activated by protease (antibody)
light: EIVLTQSPDFQSVTPKEKVTITCSANSALSYMYWYQQKPDQSPKLWVHGTSNLASGVPSRFSGSGSGTDFTLTINSLEAEDAATYYCHHWSNTQWTFGGGTKVEIKRTVAAPSVFIFPPSDEQLKSGTASVVCLLNNFYPREAKVQWKVDNALQSGNSQESVTEQDSKDSTYSLSSTLTLSKADYEKHKVYACEVTHQGLSSPVTKSFNRGEC
heavy: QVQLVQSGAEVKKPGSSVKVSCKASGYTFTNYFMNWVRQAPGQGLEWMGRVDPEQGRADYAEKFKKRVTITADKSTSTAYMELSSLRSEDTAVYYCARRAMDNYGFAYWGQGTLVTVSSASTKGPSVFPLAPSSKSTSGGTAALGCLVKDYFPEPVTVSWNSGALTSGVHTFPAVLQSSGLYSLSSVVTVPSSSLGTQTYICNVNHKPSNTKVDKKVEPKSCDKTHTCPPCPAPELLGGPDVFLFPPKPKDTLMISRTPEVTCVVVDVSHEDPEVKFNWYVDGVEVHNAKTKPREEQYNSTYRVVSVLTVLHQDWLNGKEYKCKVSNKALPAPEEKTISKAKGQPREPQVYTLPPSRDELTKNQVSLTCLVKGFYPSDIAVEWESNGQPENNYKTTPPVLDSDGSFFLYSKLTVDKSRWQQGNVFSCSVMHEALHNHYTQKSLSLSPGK
notes: also called Antibody 2-14 with protease (+); not shown: remnant of the cleaved linker (part of VPLSLY and spacer SGG)
Regarding B1, in [1], the “EC50 of FcγRIIIa (ADCC) reporter activation, after exposure to protease” value was 0.0028 ng/mL. In assay [2], the EC50 (commonly the concentration at which the effect is half-maximal) came out at 410 pM. In assay [3], the 50% effective concentration (EC50 (read off the curve)) (usually the concentration giving half of the maximal effect) was around 400 pM.

B2: Antibody 2-13 (Activated) (antibody, not shown: small tags and cut ends)
light: B1 light
heavy: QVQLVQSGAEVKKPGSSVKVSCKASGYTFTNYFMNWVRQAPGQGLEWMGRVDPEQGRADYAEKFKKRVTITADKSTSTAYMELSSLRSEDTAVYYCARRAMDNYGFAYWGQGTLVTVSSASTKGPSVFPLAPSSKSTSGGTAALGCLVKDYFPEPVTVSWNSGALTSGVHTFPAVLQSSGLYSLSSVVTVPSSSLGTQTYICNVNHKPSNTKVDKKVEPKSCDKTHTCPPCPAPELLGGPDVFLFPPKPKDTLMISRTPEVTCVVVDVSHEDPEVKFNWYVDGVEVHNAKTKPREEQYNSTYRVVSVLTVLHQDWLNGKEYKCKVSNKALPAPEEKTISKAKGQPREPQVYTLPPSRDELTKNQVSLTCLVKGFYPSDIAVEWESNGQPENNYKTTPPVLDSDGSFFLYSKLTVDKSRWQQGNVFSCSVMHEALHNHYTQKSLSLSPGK
As to B2, in assay [4], the response was half-maximal at 570 pM (EC50).

B3: Antibody 2-9 (Activated) (antibody)
light: B1 light
heavy: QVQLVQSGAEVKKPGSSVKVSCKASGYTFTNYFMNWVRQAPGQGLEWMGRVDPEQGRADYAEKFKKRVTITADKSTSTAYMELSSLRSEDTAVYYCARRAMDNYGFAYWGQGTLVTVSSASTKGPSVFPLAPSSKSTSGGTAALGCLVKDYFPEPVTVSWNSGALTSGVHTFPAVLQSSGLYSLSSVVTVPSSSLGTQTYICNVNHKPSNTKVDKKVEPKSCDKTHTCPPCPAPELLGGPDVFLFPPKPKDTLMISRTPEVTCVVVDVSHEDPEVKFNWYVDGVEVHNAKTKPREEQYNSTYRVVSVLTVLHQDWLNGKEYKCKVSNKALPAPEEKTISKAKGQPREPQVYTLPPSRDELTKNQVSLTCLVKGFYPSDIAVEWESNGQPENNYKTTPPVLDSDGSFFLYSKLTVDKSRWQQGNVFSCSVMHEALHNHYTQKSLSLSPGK
notes: not shown: remnant of the cleaved linker (part of HEQLTV and spacer SGG)
As to B3, in assay [4], the EC50 came to 670 pM.

B4: Antibody 2-8 (Activated) (antibody, not shown: small tags and cut ends)
light: B1 light
heavy: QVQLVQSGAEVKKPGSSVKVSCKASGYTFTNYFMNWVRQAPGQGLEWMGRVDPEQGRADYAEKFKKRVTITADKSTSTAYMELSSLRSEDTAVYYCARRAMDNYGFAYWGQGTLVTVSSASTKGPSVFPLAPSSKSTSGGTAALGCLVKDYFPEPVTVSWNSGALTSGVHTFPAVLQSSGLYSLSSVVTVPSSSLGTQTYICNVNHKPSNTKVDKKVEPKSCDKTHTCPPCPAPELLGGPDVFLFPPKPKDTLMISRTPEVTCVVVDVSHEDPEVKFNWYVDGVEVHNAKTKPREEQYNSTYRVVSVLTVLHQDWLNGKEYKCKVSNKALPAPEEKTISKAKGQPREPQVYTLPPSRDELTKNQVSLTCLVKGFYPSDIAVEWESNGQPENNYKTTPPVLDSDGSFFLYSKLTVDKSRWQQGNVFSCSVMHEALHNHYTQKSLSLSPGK
Molecule B4 came in with an EC50 in assay [4] of 670 pM.

B5: Antibody 2-12 (Activated) (antibody, not shown: small tags and cut ends)
light: B1 light
heavy: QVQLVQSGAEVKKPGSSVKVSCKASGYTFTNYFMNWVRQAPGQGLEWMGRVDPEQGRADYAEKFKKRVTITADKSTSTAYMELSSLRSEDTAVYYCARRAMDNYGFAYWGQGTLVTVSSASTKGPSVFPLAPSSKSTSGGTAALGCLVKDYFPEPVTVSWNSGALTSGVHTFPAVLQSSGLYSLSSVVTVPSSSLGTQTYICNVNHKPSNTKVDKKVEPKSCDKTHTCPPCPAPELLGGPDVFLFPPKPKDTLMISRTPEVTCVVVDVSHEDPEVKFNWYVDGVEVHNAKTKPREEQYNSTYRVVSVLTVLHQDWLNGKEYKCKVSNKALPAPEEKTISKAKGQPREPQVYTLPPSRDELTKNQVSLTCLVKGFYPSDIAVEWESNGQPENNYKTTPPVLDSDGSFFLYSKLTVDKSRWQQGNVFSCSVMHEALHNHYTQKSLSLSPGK
On to B5, for which, in [4], a half-maximal effect (EC50) was put at 620 pM.

B6: Antibody 2-11 (Activated) (antibody, not shown: small tags and cut ends)
light: B1 light
heavy: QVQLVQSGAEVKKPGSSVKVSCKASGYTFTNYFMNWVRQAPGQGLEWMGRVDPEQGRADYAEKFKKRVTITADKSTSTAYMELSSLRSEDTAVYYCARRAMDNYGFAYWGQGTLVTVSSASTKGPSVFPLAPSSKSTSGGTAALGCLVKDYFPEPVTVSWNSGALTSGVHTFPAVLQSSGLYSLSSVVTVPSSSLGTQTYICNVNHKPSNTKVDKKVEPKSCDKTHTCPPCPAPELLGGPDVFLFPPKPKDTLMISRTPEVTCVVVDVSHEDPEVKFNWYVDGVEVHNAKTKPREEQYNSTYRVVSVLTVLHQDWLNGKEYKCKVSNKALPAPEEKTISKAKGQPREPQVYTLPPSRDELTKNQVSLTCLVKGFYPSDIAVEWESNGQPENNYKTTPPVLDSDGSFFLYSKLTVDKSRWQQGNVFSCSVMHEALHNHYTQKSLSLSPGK
Consider B6, for which the EC50 in assay [4] is 620 pM.

B7: Antibody 2-3 (antibody, V domains shown)
VL: EIVLTQSPDFQSVTPKEKVTITCSANSALSYMYWYQQKPDQSPKLWVHGTSNLASGVPSRFSGSGSGTDFTLTINSLEAEDAATYYCHHWSNTQWTFGGGTKVEIKR
VH: QVQLVQSGAEVKKPGSSVKVSCKASGYTFTNYFMNWVRQAPGQGLEWMGRVDPEQGRADYAEKFKKRVTITADKSTSTAYMELSSLRSEDTAVYYCARRAMDNYGFAYWGQGTLVTVSSA
notes: see m21; also called version of Antibody 2 having a S239D mutation, an I332E mutation in the Fc region, and two hinge region mutations
Take B7: the 50% effective concentration (EC50) in assay [5] is 400 pM.

B8: Antibody 2-4 (antibody, V domains shown)
VL: B7 VL
VH: B7 VH
notes: Fc with S239D, I332E, A330L; also called version of Antibody 2 having S239D, I332E, and A330L mutations in the Fc region
As to B8, the concentration for a half-maximal effect (EC50) in assay [5] came to 400 pM.

B9: Antibody 2-5 (antibody, V domains shown)
VL: B7 VL
VH: B7 VH
notes: see m21; also called version of Antibody 2 having S239D, I332E, A330L mutations in the Fc region, and two hinge region mutations
The molecule B9 came in with a half-maximal effective concentration (EC50) in assay [5] of 410 pM.

B10: parental humanized anti-CTLA4 antibody 1 (antibody, human IgG1, kappa)
light: DIVMTQTPLSLSVTPGQPASISCRSSQSLLNSDGNTYLYWYLQKPGQSPQLLIYLVSKLGSGVPNRFSGSGSGTDFTLKISRVEAEDVGVYYCVQGTHDPWTFGGGTKVEIKRTVAAPSVFIFPPSDEQLKSGTASVVCLLNNFYPREAKVQWKVDNALQSGNSQESVTEQDSKDSTYSLSSTLTLSKADYEKHKVYACEVTHQGLSSPVTKSFNRGEC
heavy: not shown
notes: Humanized IgG1
In the case of B10, in assay [6], the “EC50 (read off the curve)” value is around 700 pM.

B11: Antibody 2-10 (antibody, human IgG1, kappa)
light: ACPFPALELCGGGSSGGSGGSGGSGSGGEIVLTQSPDFQSVTPKEKVTITCSANSALSYMYWYQQKPDQSPKLWVHGTSNLASGVPSRFSGSGSGTDFTLTINSLEAEDAATYYCHHWSNTQWTFGGGTKVEIKRTVAAPSVFIFPPSDEQLKSGTASVVCLLNNFYPREAKVQWKVDNALQSGNSQESVTEQDSKDSTYSLSSTLTLSKADYEKHKVYACEVTHQGLSSPVTKSFNRGEC
heavy: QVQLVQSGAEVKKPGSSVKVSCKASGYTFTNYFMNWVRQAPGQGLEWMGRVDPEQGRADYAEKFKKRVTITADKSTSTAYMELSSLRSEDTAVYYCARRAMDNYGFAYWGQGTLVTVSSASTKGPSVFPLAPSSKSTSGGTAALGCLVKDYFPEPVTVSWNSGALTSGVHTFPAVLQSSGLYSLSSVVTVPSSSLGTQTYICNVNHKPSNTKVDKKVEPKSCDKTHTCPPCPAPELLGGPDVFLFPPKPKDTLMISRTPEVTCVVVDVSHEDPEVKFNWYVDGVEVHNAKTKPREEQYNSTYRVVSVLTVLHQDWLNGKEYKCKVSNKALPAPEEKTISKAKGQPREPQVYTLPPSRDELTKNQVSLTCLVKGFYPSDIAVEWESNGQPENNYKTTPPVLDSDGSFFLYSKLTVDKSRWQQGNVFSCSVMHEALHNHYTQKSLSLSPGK
notes: also called non-cleavable masked Antibody 2-10
Take B11: the EC50 in assay [7] and in [8] was 29400 pM throughout. Besides, in assay [9], the “EC50 (read off the curve)” value is around 8000 pM.

B12: Antibody 2-14 (antibody, human IgG1, kappa)
light: ACPGKGLPSCGGGSSGGSGVPLSLYSGGEIVLTQSPDFQSVTPKEKVTITCSANSALSYMYWYQQKPDQSPKLWVHGTSNLASGVPSRFSGSGSGTDFTLTINSLEAEDAATYYCHHWSNTQWTFGGGTKVEIKRTVAAPSVFIFPPSDEQLKSGTASVVCLLNNFYPREAKVQWKVDNALQSGNSQESVTEQDSKDSTYSLSSTLTLSKADYEKHKVYACEVTHQGLSSPVTKSFNRGEC
heavy: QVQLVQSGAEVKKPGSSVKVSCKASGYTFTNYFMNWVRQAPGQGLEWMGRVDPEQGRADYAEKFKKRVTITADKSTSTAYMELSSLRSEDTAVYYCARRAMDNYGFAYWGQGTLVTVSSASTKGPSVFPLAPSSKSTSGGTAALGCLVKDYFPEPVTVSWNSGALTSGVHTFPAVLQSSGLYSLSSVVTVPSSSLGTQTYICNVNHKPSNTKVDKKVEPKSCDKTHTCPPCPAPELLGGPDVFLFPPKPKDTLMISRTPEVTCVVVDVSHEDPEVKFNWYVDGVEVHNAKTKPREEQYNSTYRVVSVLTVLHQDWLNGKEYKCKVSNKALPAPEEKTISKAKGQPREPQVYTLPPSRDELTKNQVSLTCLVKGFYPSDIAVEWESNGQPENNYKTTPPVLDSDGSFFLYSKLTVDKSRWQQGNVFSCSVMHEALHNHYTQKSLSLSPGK
Turning to B12, in assay [1], the “EC50 of FcγRIIIa (ADCC) reporter activation, without protease” value worked out at 33 ng/mL. The same molecule registered an EC50 in assay [10] of 39400 pM. Besides, the “EC50 (read off the curve)” value in assay [11] was around 10000 pM; in assay [12] it was around 20 ng/mL.

B13: Antibody 2-16 (antibody, human IgG1, kappa)
light: ACPFPALELCSSGGSGPDSGGFMLTSGGEIVLTQSPDFQSVTPKEKVTITCSANSALSYMYWYQQKPDQSPKLWVHGTSNLASGVPSRFSGSGSGTDFTLTINSLEAEDAATYYCHHWSNTQWTFGGGTKVEIKRTVAAPSVFIFPPSDEQLKSGTASVVCLLNNFYPREAKVQWKVDNALQSGNSQESVTEQDSKDSTYSLSSTLTLSKADYEKHKVYACEVTHQGLSSPVTKSFNRGEC
heavy: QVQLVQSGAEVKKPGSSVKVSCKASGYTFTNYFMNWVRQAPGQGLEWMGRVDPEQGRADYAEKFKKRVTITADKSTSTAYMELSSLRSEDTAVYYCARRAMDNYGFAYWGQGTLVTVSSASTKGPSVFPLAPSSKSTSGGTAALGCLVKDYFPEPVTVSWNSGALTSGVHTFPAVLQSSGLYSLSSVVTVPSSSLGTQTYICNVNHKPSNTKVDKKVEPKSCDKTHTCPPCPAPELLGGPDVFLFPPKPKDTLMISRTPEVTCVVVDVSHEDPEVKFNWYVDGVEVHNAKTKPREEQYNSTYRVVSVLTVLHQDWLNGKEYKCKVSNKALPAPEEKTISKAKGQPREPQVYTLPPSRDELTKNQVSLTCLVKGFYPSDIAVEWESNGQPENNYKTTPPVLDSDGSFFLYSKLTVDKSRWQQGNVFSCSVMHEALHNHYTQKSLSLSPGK
Take B13: the “EC50 (read off the curve)” value in assay [11] was around 6000 pM.

B14: Antibody 2-15 (antibody, human IgG1, kappa)
light: B11 light with F4G, P5K, A6G, E8P, L9S
heavy: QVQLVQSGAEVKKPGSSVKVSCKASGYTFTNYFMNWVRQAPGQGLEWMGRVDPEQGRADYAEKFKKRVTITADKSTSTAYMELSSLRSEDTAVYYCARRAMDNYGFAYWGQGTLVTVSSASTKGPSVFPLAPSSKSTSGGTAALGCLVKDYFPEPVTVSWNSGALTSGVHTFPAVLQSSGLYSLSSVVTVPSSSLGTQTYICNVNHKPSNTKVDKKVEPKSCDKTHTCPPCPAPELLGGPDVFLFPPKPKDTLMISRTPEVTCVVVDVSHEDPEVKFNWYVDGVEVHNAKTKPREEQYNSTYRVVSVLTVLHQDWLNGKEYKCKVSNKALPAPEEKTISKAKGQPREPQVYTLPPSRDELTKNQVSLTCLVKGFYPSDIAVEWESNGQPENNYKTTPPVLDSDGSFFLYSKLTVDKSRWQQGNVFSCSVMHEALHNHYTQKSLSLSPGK
For B14, the “EC50 of FcγRIIIa (ADCC) reporter activation, after exposure to protease” value in assay [1] was 10 ng/mL. Besides, the “EC50 of FcγRIIIa (ADCC) reporter activation, without protease” value in [1] is 19 ng/mL. Also, the figures for the half-maximal effective concentration (EC50) in assay [2] and in [10] were 17300 pM and 24300 pM, respectively. Moreover, the 50% effective concentration (EC50 (read off the curve)) in assay [9] was around 7000 pM; in [13], around 8000 pM.

B15: parental anti-CTLA4 antibody (9D9), murine IgG2a (antibody)
light: DIVMTQTTLSLPVSLGDQASISCRSSQSIVHSNGNTYLEWYLQKPGQSPKLLIYKVSNRFSGVPDRFSGSGSGTDFTLKISRVEAEDLGVYYCFQGSHVPYTFGGGTKLEIKRADAAPTVSIFPPSSEQLTSGGASVVCFLNNFYPKDINVKWKIDGSERQNGVLNSWTDQDSKDSTYSMSSTLTLTKDEYERHNSYTCEATHKTSTSPIVKSFNRNEC
heavy: EAKLQESGPVLVKPGASVKMSCKASGYTFTDYYMNWVKQSHGKSLEWIGVINPYNGDTSYNQKFKGKATLTVDKSSSTAYMELNSLTSEDSAVYYCARYYGSWFAYWGQGTLITVSSAKTTAPSVYPLAPVCGDTTGSSVTLGCLVKGYFPEPVTLTWNSGSLSSGVHTFPAVLQSDLYTLSSSVTVTSSTWPSQSITCNVAHPASSTKVDKKIEPRGPTIKPCPPCKCPAPNLLGGPSVFIFPPKIKDVLMISLSPIVTCVVVDVSEDDPDVQISWFVNNVEVHTAQTQTHREDYNSTLRVVSALPIQHQDWMSGKEFKCKVNNKDLPAPIERTISKPKGSVRAPQVYVLPPPEEEMTKKQVTLTCMVTDFMPEDIYVEWTNNGKTELNYKNTEPVLDSDGSYFMYSKLRVEKKNWVERNSYSCSVVHEGLHNHHTTKSFSRTPGK
notes: Made at ATUM by HEK293 transient expression as murine IgG2a; reactive against murine CTLA4; also called 9D9.IgG2a; 9D9 IgG2a
In assay [14], B15 returned an EC50 of 310 pM. For the same molecule, in [15], the “EC50 (read off the curve)” value was around 200 pM.

B16: Antibody 2-7 (antibody, human IgG1, kappa)
light: ACPFPALELCGGSGGSVPLSLYSGGEIVLTQSPDFQSVTPKEKVTITCSANSALSYMYWYQQKPDQSPKLWVHGTSNLASGVPSRFSGSGSGTDFTLTINSLEAEDAATYYCHHWSNTQWTFGGGTKVEIKRTVAAPSVFIFPPSDEQLKSGTASVVCLLNNFYPREAKVQWKVDNALQSGNSQESVTEQDSKDSTYSLSSTLTLSKADYEKHKVYACEVTHQGLSSPVTKSFNRGEC
heavy: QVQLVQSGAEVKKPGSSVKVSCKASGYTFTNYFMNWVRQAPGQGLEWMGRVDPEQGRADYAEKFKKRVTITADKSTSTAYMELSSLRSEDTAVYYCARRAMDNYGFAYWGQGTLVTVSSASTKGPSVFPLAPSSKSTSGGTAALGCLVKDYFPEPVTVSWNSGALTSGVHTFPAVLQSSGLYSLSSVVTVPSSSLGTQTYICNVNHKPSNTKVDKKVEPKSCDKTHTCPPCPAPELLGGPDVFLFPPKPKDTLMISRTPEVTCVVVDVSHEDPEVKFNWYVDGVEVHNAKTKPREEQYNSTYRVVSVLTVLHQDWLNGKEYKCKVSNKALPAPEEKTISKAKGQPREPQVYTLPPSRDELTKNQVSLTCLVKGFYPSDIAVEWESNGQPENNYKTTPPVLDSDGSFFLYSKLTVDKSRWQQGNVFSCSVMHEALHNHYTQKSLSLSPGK
B16: the EC50 in assay [7] and in [8] was 33900 pM each time.

The record behind these values is patent publication US20220073613A1 (XILIO DEVELOPMENT, published 2022).
